The record followed here is patent US20140065111A1 (published 2014).

The test deals with T1, human gp100 peptide on H-2Db (mouse).
T1 peptide: KVPRNQDWL
Description: multimer staining. As for the experimental part:
Monomers of H2D^b mouse MHC class I molecules loaded with the human gp100 peptide KVPRNQDWL were ordered from the NIH tetramer facility. Monomers were conjugated to APC-Streptavidin (eBiosience) by incubation on ice. Cells were stained with tetramers for 1H in concentrations of 0.178 μg tetramers for 1 million cells in total volume of 50 μl of PBS supplemented with 0.5% BSA and 0.1% of Na-Azide.
After testing the expression and presence of the CD3-TCR complex on the cell surface it is essential to determine the capability of the TCR to bind the MHC-class I molecule presenting the gp100 peptide. In order to test binding capability of the TCR a tetramer staining assay was performed. The tetramer staining assay is designed for testing TCR-MHC binding and was previously described (Ogg and McMichael, 1998). Briefly, the tetramer is a complex of four monomers. Each monomer formed from a mouse MHC-class I molecule, H-2D^b, presenting the human gp100 peptide KVPRNQDWL. The H-2D^b molecule is conjugated to a biotin molecule. The tetramers are assembled by linking four biotin conjugated monomers to one molecule of APC-conjugated Streptavidin. The 293TREx-CD3-Pmel-TCR cells were stained with the tetramers and analyzed by FACS.

B1: Pmel-TCR (TCR, V domains shown)
Valpha: QQKVQQSPESLTVSEGAMASLNCTFSDRSSDNFRWYRQHSGKGLEVLVSIFSDGEKEEGSFTAHLNRASLHVFLHIREPQPSDSALYLCAVNTGNYKYVFGAGTRLKVIA
Vbeta: EAGVTQSPRYAVLQEGQAVSFWCDPISGHDTLYWYQQPRDQGPQLLVYFRDEAVIDNSQLPSDRFSAVRPKGTNSTLKIQSAKQGDTATYLCASSFHRDYNSPLYFAAGTRLTVT
Consider B1, for which the binding result is on record as “recognises”.
